In a protein production outcome set (Wang et al. 2014):

Test: label from the status in PepcDB records

| Sequence | protein production |
| --- | --- |
| MRVISRRTSLILFSGLVFVLASMLLYLYLNSGSEQTQTYNESRDLIRQLKQQDAVWENEVLKARVAVSHNYDPLVIPLKEMKRLWARFDRREAEQGRDESDQWRDAHDGFLSAFGEKARLVEQFKSHNALLRNSLAFLPTAEDGIQAQINTMLAPNRQEVHVFVTDTYDLLLSALEFAQVTSVERAAEIEVGLGNLAVNTENLPKEFQTPLNLLSNHVALILREQPVVNRLLEQIEAIPVAERLDTITSLLDRDQQQVEKINRKNHLYTLWLSGLLMFSVICLAALLVRSFAEVRRVNNALQSANDVLEQRVEERTLALRNAQSELFNAARQAGMAEIATNVLHNVGNVLNSVNTSSDLIARTLRSSKTQGLGKAMQLFREHATDIGRFLDEDPRGRLLPGYLNQLTEAIADEQKEMAIELERMNKSIDHIKEVVATQQSYAGAKNVPEPLSVNDLVEDALRMNAGALTRHQVRVVRDFADLPLVMGDRHRLLLILINLISNAKYAMSGPGSDPRTMILRTRIVEGGLLEMSVLDEGEGIAPENLQKIFAHGFTTRKDGHGFGLHSCALAAIEMNGHLTAHSDGPGLGAVFTLRIPLIAVTEPA | failed |
| MRVLVLHSHPVEESYGKALYRQTVESLQKAGHMVDGCDLYEERFDPVLSRHDRLAYHDYPENLKLVESHVERLKAAEGLVICTPIWNFGFPAILKGYFDRVWLPGVSFELVNGKVESRLRHIRKLAAVLTYGATPFRAFAAGNPPKKIVKRVLRAQINPVRPVTFLAHYDMNNCTPETRAKFLARVGGAMERF | failed |
| MRVPLDEIDKKIIKILQNDGKAPLREISKITGLAESTIHERIRKLRESGVIKKFTAIIDPEALGYSMLAFILVKVKAGKYSEVASNLAKYPEIVEVYETTGDYDMVVKIRTKNSEELNNFLDLIGSIPGVEGTHTMIVLKTHKETTELPIK | not failed |
| MRVSCLSLPWHTPKALLHETITQTYLLWHIVLEHMDIVIVGAGRVGSRTARVVTNEDHAVTVIEQDYDRAERARTEGFDVVEGDGTSEDTLLDAGIDTADAIGALTSDLNTNFIACMVGNHHDCRTVLRIDEDYREDIYRKYADEVDEIVYPERLGAIGAKNALLGGNVTAIADLAEHLQVVQLTVTDEAPMRGYSISELELPAGARLLAFGKHDASLALPLPSETLETGDRIAVLAEFDTLDSVRQILVGNAPPTEVA | failed |
| MRVSVVIPARNEEAYLPSALEAVLAQTLPPFEVIVVDNASTDRTREVAEALGARVVFCGRRGVAYARQAGLLAARGEWVAMTDADSLPTPRWLERLAHKAPGAVAVYGPLRFYGVSPLEAALSEWGYRAFLNLMALLGRPNLAGANMMVLKEAALRVGGFPEVEAREDVLLGWRLKALGPVRYAGDALVLTSARRLQGGWGRFLLRQARNLLGDPRGYFGEAGERERLEHHHHHH | not failed |
| MRWLNRHKFLPFLAWLPQQSRASVGRDALVGLSGAILALPQSIAYALIAGLPPEYGLYAAIVPVLIACLWGSSWHLICGPTAAISIVLYVSVSPLAVPASQDYIMLILLLTFIAGVFQLLLGMMRFGALVNFVSHSVVLGFTLGAAVVIALGQMPNLLGIDLPSQTTALKSLSAVLEHRGELDKPSLMLGLLTLTLGIGLKAWVPRWPTLLIALVSSSLLVWLWPAMFGHVRVVSAFVGHLPPFSPLPLDLELILKLLPTAVAVGMLGLVNSLSIARSLSARSQQMLNANQEVRAQGLSNMVGSLFSGYLSAGSFTRAALSYEAGARSPLAGVFSALWVALFAVAGASLVSHIPIPAMAASILLICWGLVDRRGIRALLRVSRAEFFVMALTCLATLLLELQTAIYAGVLASLFFYLKRTSQPRVQQWREGDEDVLRVGGSIFFGASHYLQTRLQRTEGLRVVIDAQQINFIDYSGVEMLHQEARRLGQQGRVLVLRNARPLVIEELHKLEGPENCPILFED | failed |
| MRWNICVVGAGKIGQMIAALLKTSSNYSVTVADHDLAALAVLNRMGVATKQVDAKDEAGLAKALGGFDAVISAAPFFLTPIIAKAAKAAGAHYFDLTEDVAATNAVRALAEDSQT | not failed |
| MRWRSSRLGRAPLLGALAILWFAVLLPRGGTAGAGPGARGIRRSTGVCAGSRPRPAALLRRSAKVVAGFSVFGCPATAFESCVLSPAPSNSLASVFLLCLLPGLMEETIHTVSTEAFALQAEDPDHTILDVRPIAAYNGWPLQDESRSGHVPGAKSLPLQWTQYMDWVEVLDEKGLSQNAPVTVYGYTADAAAEMADKLSRLGFEAVGVYDGFLEDWAPDPDRPLQRMERYQQLVYPEWVQRLRTGETPPGMRGDDHVLCHAHFGYRQDYEDGHIPGAIPLNTNALESPETWNRRSPEELKSALEDHGIRHDTTVVLYGRFSYPTYDQDDPAQSAGHLGAMRCAALMLYAGVEDVKILNGGISTWESAGYDVSTDDVEPAPVDDFGAEVPAHPEYMLTLDEAKALLEADDGDLVSVRSWAEFIGERSGYHYIDKTGRIPGAVFGNCGSDAYHMENYRNFDYTTREFSEIAGKWAEMGITPDKHIAFYCGTGWRGSEAFMNAYLMGWPNISVYDGGWYEWSSHPDTETATGVPENDVPA | failed |
| MRYAVVLYPCSSFHHESVRPSRFPAPRRHPLLHRLPLAVARRLAGPGTADHFRERAGRGGAASRQRRRVPRRGRRRAAVGPQGGRRLSRAENPQAAAARPHRAGQGAGAQRPSLSAAMNAPQRKIIHVDCDCFYAAIEMRDDPSLRDVPLAVGGRPETRGVVATCNYIARRYGVHSAMSSARALRLCPELLIVPPDMARYRLASQQIMAIYQRYTEVIEPLSLDEAYLDVTGQPHERGSATLMAEAIRRQIRDEVGITASAGIAPNKFLAKVASDWNKPDGQYLIRPRDIDAFVAVLPVEKIHGVGRVTAERLHRLGIRSCGDLRRWSPADLFRHFGSFGERLLALAHGRDERPVSTDRSRKTISVEETYAQDLPDLASCLSKLPELVDRLQARLARSGSPAFKGLSVKLKFDDFSQTTVEQPGYALSMAAFGQLLRAGHARGARPARLLGVGVKLADDFDLPRQLRLFGRDGRPLPDSAPPAEAPPGGPEADSAA | failed |
| MSAATPQPPAPHVVLGSGPAGTALARELVRRGHPVRLVDRRATGPAVEGVERFPADVGTADGARAAIRDAAVVYHCVNVAYHLQVEVMPRVQEAVLAAVEESGARLVVLDTVYPYGETGGAVMTEDSPWKATSRKGRMRAELDERYLAAHRSGRARVVLGRSADFVGPGVLNSSLGAAVFPGALTGGDVVAMGNIDLPHSYTGIEDVAAALATLGERPDGDGRVWHLPTAPAVSTREIHALIEKRVGRPLNVVVLERPRPFGPFDEQLMAEYEEMFYQHTEAQIMDSGAFERFFEAAPTPLADTLDATVTWYEAWLRSR | failed |
| MSAEATPESTLPGTAAETSPDNPWPLQLLSRKLKAHIERAPAAWIEGQVIELNRRGGNAFLTLRDVDAEISLPASVWSTVLDRQKVPLERGSRVVALVKADFWVKTGRLNMSVKDIRPVGLGDLLARIERLRQALAAEGLFADSRKRKLPLLPHRIGLITGRESDAKKDVMRNAALRWPAVEFDVREVAVQGNTAVSQIIAALKRLDADPHVDVIVLARGGGALEDLLPFSNEDLIRAVSAATTPVVSAIGHEADRPILDDVADLRASTPTDAAKRIVPDVAEELAMVRQARDHLRRSISRMVDRETDRLHALRSRPVLASPASMVDARSEDIHRLQRRTHSAVSTAVVRALDQVHHLRAQVRALSPQKTLDRGYAVVQLVGEDQAGHHVVSSPDEAPDGTPLSIRVAEGRFRAVSAGAGQLVEH | failed |
| MSAERSRWLQCLGLPATADAIAIKTAYRQLARQWHPDCNPDPQATARFQEIQIAYERLLVLQESATAQPVPQAPPADAALIALKRQFQPQLQDLLADGRWAKAIALTEALQQRLPDDWEVRQWLAICYLRQGQALLVQQQRQQAIVYFEKARRTDPHNPRLQQEIQASHRLASARRA | failed |
| MSAGLVQAAYIVAALFFIMSLAGLSKQESARNGNYYGIAGMAIALIATIFSPDAQGFGWIIIAMAIGGAIGIFYAKKVEMTEMPELVAILHSFVGLAAVLVGYNSYLDAPEAATHAEHVIHLVEVFLGVFIGAVTFTGSIVAFGKLRGVISSSPLNLPHKHKMNLAAIVVSTLLMIYFVKADGSMFALIVMTLIAFAFGYHLVASIGGADMPVVVSMLNSYSGWAAAAAGFMLANDLLIVTGALVGSSGAILSYIMCKAMNRSFISVIAGGFGQEIIISSDEEQGEHRETTAEEVAEMLKNSKSVIITPGYGMAVAQAQYPVHEITDALRSQGIEVRFGIHPVAGRLPGHMNVLLAEAKVPYDIVLEMDEINDDFSETDTVLVIGANDTVNPAALEDPNSPIAGMPVLEVWNAKNVIVFKRSMNTGYAGVQNPLFFKENTSMLFGDAKESVEAIFKAL | not failed |
| MSAIDCIITAAGLSSRMGQWKMMLPWQQGTILDTSIKNALQFCSRIILVTGYRGNELHERYVNQSNITIIHNPDYAQGLLTSVKAAVPAVQTEHCFLTHGDMPTLTIDIFRKIWSLRNDGAILPLHNGIPGHPILVSKPCLMQAIKRPNITNMRQALLMGAHYSVEVENAEIILDIDTPDDFITVQKRYTKI | failed |
| MSAIDRGSGSSMEEPERPEGPLADADGRESVTDHQDTTAADTPEDATTGSAARSETGAAPDTAQAASAPSAAAAPASEPAASAAEQRDASHEAPAPGSRETPPHPAPRPAPFAPQSHAPHPAWGPPAPDQATARHGAQAYPGPEAPQPAPGRPGPPPAGGVPAGAAQGAWQERPAQHDQPNSPTGAWAVPPSPGGFFPPTGGFPTLHGSSPFEGAPPPGKPQRSGRVVLIAAVTALITSLIVGPAASVATAYFLSEQVAANPAATSAASGDVTKVAAKALPSVVSIATAEGGGSGFIIRDDGLIVTNNHVVSDAQELTVLFHDGSQASATIVGTDPVSDLAVIRAQGVSGLTPASLGDSDQVEVGAEVVAIGAPLGLSGTVTSGVVSAVERPVNTGVSGQQDSPLLPSPDEEEPQATTSTVIDAIQTDAPINPGNSGGPLVNMNGEVIGINTAIATTSGNFMSQSGSIGLGFAIPINQAKPIIEELINTGKATYAAIEASVTVAEDGPGAELVEVNRGGAADQAGLRKGDVIIRIEDRMVTDPNVLIAEIRSHRPGDTVTITYQRGGQTAQTTVTLAAQSLDN | failed |
| MSAKSKQYFNIFVFIISLIFFDQLSKYLVAKYVKLGSIYFSFFDDFFRIIHVRNTGILFSMGSNIHYSLKKIFFLAMPIFILIFVFYLSLKERNCIARISLLLIFSGGVGNVIDRLFRPSGVVDFLDLKFYGIFGLDRWPTFNFADSYVVIGMILFLVYDFFIKRKVLNK | failed |
| MSALEPDDPRSVGEYRLLGRLGAGGMGRVFLGRSPGGRLVAVKVVHAELLRRPEFRDRFRREVQAARMVSGAFTAPVVDADPDAPLPWLVTSYIAGPSLEQAVAERGPFDPQAVLTLAAGLAEALVSIHAAHLVHRDLKPSNVLLAEDGPRVIDFGIVRSVDADSLTGSGHMAGSPGFMSPEQVNGDEVTWASDVFCLGAVLAFAATGTNPFGAGPTPALLYRVVHNAPDVAAVADPALRSLIADCLAKDPAHRPAPREILARIGPLGGESATALPHAQQWTPAARPTRADAVPTRIVPPVAAPPAHQHTRVDTSPAQVYPPAPAPADVRPTATGDGGRRSRRAFLFSGAGALAALGVGTGFWLNRPADPDPAEGSAPAPSPSSAPSPPPGPVGLWPLDEASGQVARDTAGGHDGTVTGVAWQGAGEGAAFDGTGSQIVTAGPVLQTGAGRSFTVAAWVRLSAVPGVFATAVSQDSADASGFYLQYSSEDQGWAFARPGLRAVGRTAPAAHVWTHLTGVCDGPARKLHLYVNGVQEAVVEDTGPAPATGAFMIGRASFDGQPRDFFPGAIRDVRAFDRALGPARVAQLAQLG | failed |
| MSALREALRDLPDAVFADVLESEDEYLLVLDLPGVTAETIDVTVEGGRLRIDGQRTKDVPGEFTFVREDRSVFLDAELPLPPDTTGQGGEGTVENGVLELRLPKATAAPSTTIPIDGD | failed |
| MSANDKLTILWTTDNKDTVFNMLAMYALNSKNRGWWKHINIILWGASVKLVANDTQVQTEILEMLQSGITIEACQDCCENFGVASIITNLGITVRYMGIPLTEYLKNGEKILSI | not failed |
